Reference: the supplement of paper PMC9170038

System: MS2 coat protein
Assay: apparent KD of MS2 coat protein; designed switch direction (-1 OFF switch, 1 ON switch): -1; higher = weaker reporter binding
How it was run: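 Apparent KD, taken as the median over clusters for each design, was obtained by curve-fitting normalised cluster fluorescence. Designed RNA switches had been transcribed on Illumina chips by stalled E. coli RNA polymerase and titrated with SNAP-549-labelled MS2 coat protein, doubling from 0.7 or 1.5 nM to 3 µM.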

[1] = Eterna round: R95, input ligand: FMN 200 uM
[2] = Eterna round: R95, input ligand: microRNA oligo, concentration not stated
[3] = Eterna round: R95, input ligand: none
[4] = input ligand: microRNA oligo, concentration not stated

Sequence	apparent KD of MS2 coat protein [1] [nM]	apparent KD of MS2 coat protein [2] [nM]	apparent KD of MS2 coat protein [3] [nM]	apparent KD of MS2 coat protein [4] [nM]	apparent KD of MS2 coat protein (input ligand: FMN 200 uM) [nM]	apparent KD of MS2 coat protein (input ligand: none) [nM]
AAGUAUAGAGGAUAUAGUGAGUACUACAUGAGGAUCACCCAUGUUCUUCAUUACGUAUUUCUAGAAGGCUGAUAAA [EX-5 Malc#24] (puzzle: Exclusion 5)	611	261	289	–	–	–
CGGAGCGUGGGUAGGUGCAACAUGAGGAUCACCCAUGUCUCACAAGCUUUUUGCUCAUCUUAUUGUACCUUGGUGCU [Sensor v3, turn-off variant 1 (MOD of JL v.2)] (puzzle: Sensor v3, turn-off variant 1)	130	12.3	146	–	–	–
UUUAAUUUUUUUUUUUUACAAGCUUUUUGCUCGUCUUAUACAUGAGGAUCACCCAUGUGGGUGGGAAGUAAAUUAUC [JMF 56] (puzzle: Sensor v3, turn-off variant 2)	59	12.6	110	–	–	–
UUUUUGUGAGGAUAUCAGUAGUAGAACAAUAGUACUACUACUGAGAAGGCACAUGAGGAUCACCCAUGUUCCUU [Fiskers Ex 4 Super stable 44 mod 12] (puzzle: Exclusion 4)	–	14.9	–	–	–	–
UUGUACCGGUGAGGAUAUUUUUAAUAGAACUUUAUGAUAUACAUGAGGAUCACCCAUGUUACUUUAAAGAAGGCAUCGGAUUAU [JL JR Sub091 mod 1] (Eterna round: R96, puzzle: Exclusion NG 2)	–	–	–	12.9	–	–
GAAUGAGAGCAGGAUAUCUUAAAAAUGUAUAAAAGAGAAGGGCUCACAUGAGGAUCACCCAUGUGGUCCUAGAU [jl-ex6-4.69 jandersonlee mod] (Eterna round: R97, puzzle: Exclusion 6)	–	–	–	–	572	40.5
GUGUACAGAGGAUAUAUAUGGGCAUGGAAACAUGCAACUUCACAUGAGGAUCACCCAUGUAGAAGGCUGUACAC [Ex2: 712] (Eterna round: R96, puzzle: Exclusion 2)	–	–	–	23	332	28.9
AAUAAUCAUGUAGGAUAUGCGUGGCAAAGCUAUGCAGAAGGACAUGAGGAUCACCCAUGUUCUAGCGUCUGAGUACAGAUGCUA [Mat - Exclusion NG 1 - Mod of JL - D81] (Eterna round: R96, puzzle: Exclusion NG 1)	–	–	–	32.1	399	47.4
GCUUGUAGAGGAUAUACGAGGGCCCGAGCGGAUAACACCGCACAUGAGGAUCACCCAUGUAGAAGGCUACCACC [Riquinza] (puzzle: Exclusion 2)	–	20.8	–	–	–	–
CAGUACUGAGGAUAUACAUGAGGAUCACCCAUGUGUUCCAGCGAGGAAACUAGCAAAAGUAGAAGGCAGUACUG [salish99_ex3_r3_077] (Eterna round: R96, puzzle: Exclusion 3)	–	–	–	15.6	242	18.5
CCGCAACAUGAGGAUCACCCAUGUCAGGAUAUCGUACGUUCGUCGAUAGACGAUCGUACGAGAAGGGUGUGCGG [Mat - Exclusion 1 - Eli Mod - D35] (Eterna round: R97, puzzle: Exclusion 1)	–	–	–	–	81.5	103
GGUGUCGUCAGAAGACAUGAGGAUCACCCAUGUAAAUGCACUGAGGAUAUACGGGCGACCGGCGUGUAGAAGGUAGAGCACGAA [Ladivequ] (Eterna round: R96, puzzle: Exclusion NG 3)	–	–	–	24.5	43	41.6
CUCCGGCGUGUAGGAUAUGGUUCCGUUUAGGUUCCAGAAGGACAUGAGGAUCACCCAUGUACAUGUCGUCGGUCGUCACCGGGC [salish99_ExNG1_r04_213] (Eterna round: R96, puzzle: Exclusion NG 1)	–	–	–	28.8	87.3	33.1
ACCAUAGAUGUAGGAUAUCCAUGAAGAUAACAAGGAGAAGGACAUGAGGAUCACCCAUGUAAGUAUUAUGAAUGUAGCGACAGC [Meechl Ex NG1] (Eterna round: R96, puzzle: Exclusion NG 1)	–	–	–	34	82.1	59.5
GUCACAUGGACAUAGGAUCACAUGAGGAUCACCCAUGUGACUAACAAGCUUUUUGCUCGUCUUAUGUCUAUGUGAAU [Stov1/16-A2] (Eterna round: R97, puzzle: Sensor, turn-off variant 1)	–	–	–	–	14	14.3
AAGAAAAGGAGAGGAUAUGCGAAAGGAAGUGUAGCAGAAGGCUUCGGGUAAGUCCACAUGAGGAUCACCCAUGUUAAUAAAAGA [PowerStrip EXNG 1.19] (Eterna round: R96, puzzle: Exclusion NG 1)	–	–	–	290	345	436
GAGUAGUAAGGAUAUGUCUCUGGUGGCUACGGUCACUAGAGGCAGAAGGUACAUGAGGAUCACCCAUGUUCCUC [ExDelusion 8 - Jieux - Exclusion 4] (Eterna round: R97, puzzle: Exclusion 4)	–	–	–	–	186	55.8

Sequence	apparent KD of MS2 coat protein [1] [nM]	apparent KD of MS2 coat protein [2] [nM]	apparent KD of MS2 coat protein [3] [nM]	apparent KD of MS2 coat protein [4] [nM]	apparent KD of MS2 coat protein (input ligand: FMN 200 uM) [nM]	apparent KD of MS2 coat protein (input ligand: none) [nM]
CUUUUGUGAGGAUAUCAGUAGUAAAAAAAUAAAAUUACUACUGAGAAGGUACAUGAGGAUCACCCAUGUUCCUC [salish99_ex4_r3_031] (puzzle: Exclusion 4)	–	15.1	–	–	–	–
GAUCCACAUGAGGAUCACCCAUGUGAGGAUAUGAUACUAUGUACUUCGGUACAUAGUAUCAGAAGGCACGGAUC [Ex1-3: 54] (puzzle: Exclusion 1)	–	24.6	–	–	–	–
CUCCAGACAGGAUAUACGAGGCUGUGUUCCCAUUAUAGGACACAUGAGGAUCACCCAUGUAGAAGGGUCAAUGG [Eternabot (L1) Solution 28] (Eterna round: R97, puzzle: Exclusion 2)	–	–	–	–	286	742
AAACAGGGAGGAUAUACAUGAGGAUCACCCAUGUUCGAGCGUCCUUGAGCUACCUCAGGUAGAAGGCCCAAAAG [Qubeon] (Eterna round: R97, puzzle: Exclusion 3)	–	–	–	–	151	32.9
CCAAACUGAGGAUAUACAUGAGGAUCACCCAUGUGCCCGCGGUCAUAUGUAGCCUAGUGUAGAAGGCAGAAAAC [Rearle] (Eterna round: R96, puzzle: Exclusion 3)	–	–	–	41.8	24.9	50.9
UAUUUAGCAAGCAGAUCCCACAUGAGGAUCACCCAUGUUUUCUGAAAAUAAAUUAAAAUAGCUGAAGCUCGUCUUAU [Winner reversed engineered 38] (Eterna round: R97, puzzle: Sensor, turn-off variant 1)	–	–	–	–	139	137
AGAGUAAUGCGAGGAUAUACAUGAGGAUCACCCAUGUGGUGGUGUGAGGCAAAGCCUCACACCAUGUAGAAGGCGCAUUACUCA [Mat - Exclusion NG 2 - Mod of JL - D21] (Eterna round: R96, puzzle: Exclusion NG 2)	–	–	–	35.2	155	39.3
AAGCAUUGCCAAAGGUAGUGCAAAACAUGAGGAUCACCCAUGUAGGAUAUGGUAGGCAAAGCUUACCAGAAGGACAUGAUAAAU [Mat - Exclusion NG 3 - Mod of JL - D19] (Eterna round: R96, puzzle: Exclusion NG 3)	–	–	–	28	218	42
CUAAAUCAUGUAGGAUAUGCAUAGCGAAGCUAUGCAGAAGGACAUGAGGAUCACCCAUGUUCUUCCGUCUGAGUACAGACGGAA [Mat - Exclusion NG 1 - Mod of JL - D31] (Eterna round: R96, puzzle: Exclusion NG 1)	–	–	–	30.6	288	34.1
UUUUUUGUAGUGAGGAUAUCGUUGUGGAUGUGGAUCGAGAAGGCACAUGAGGAUCACCCAUGUUAGUUGUGGUU [JR_BMOE4_Sub084] (puzzle: Brourd's mod of Exclusion 4)	–	188	–	–	–	–
GCAGCAUAGUGUUAUUACACAAUACAUGAGGAUCACCCAUGUGAGGAUAUGGACUGGAUUACAGUCCAGAAGGCACAAAGCUGC [Zipper Style 3] (Eterna round: R96, puzzle: Exclusion NG 3)	–	–	–	12.5	21.7	19.8
GAGUGCUGAGGAUAUACAUGAGGAUCACCCAUGUGCUUCAGCUAGGAGACUAGCAUCCGUAGAAGGCAGUACUC [Mod of lroppy 24 - Jieux - Exclusion 3] (Eterna round: R97, puzzle: Exclusion 3)	–	–	–	–	37.5	14.3
CUUUUGUGAGGAUAUCAGUAGUAAAAAAUUAAAAUUACUACUGAGAAGGCACAUGAGGAUCACCCAUGUUCCUC [salish99_ex4_r3_021] (puzzle: Exclusion 4)	–	37.7	–	–	–	–
GCUGGUCGAGGAUAUGCAUAUACUGGAUACAGUGGAAGGUCACAUGAGGAUCACCCAUGUAGAAGGCGACCAGC [EX2 #36] (Eterna round: R97, puzzle: Exclusion 2)	–	–	–	–	634	527
CCAAGCUUGUUCAUUAACCACAUGAGGAUCACCCAUGUCUUGGCAAUUAUGACCUGCCCGUCAGGUGCUCGUCUUAU [Sensor-V1 #36] (Eterna round: R97, puzzle: Sensor, turn-off variant 1)	–	–	–	–	45	48.1
AACAGAAAAGAAAUAAAUAACAUGAGGAUCACCCAUGUCAACGGGUAAGAGCUCAACGAGCUGCGAGUCUUACUCAA [Enreaerre] (Eterna round: R96, puzzle: Sensor v2, turn-off variant)	–	–	–	17.5	25.7	24.7
